The test has as its target dBSM (bovine). Description: ELISA. A general note: ELISA stands for enzyme-linked immunosorbent assay.

Changes are numbered by the printed parent chain.

B1: 2F3#633 (antibody, V domains shown)
VH: EVQLLESGGGLVQPGGSLRLSCAASGFTFDSYAMSWVRQAPGKGLEWVSAISGSGASTYYADSVKGRFSISRDNSKNTLYLQMNSLRAEDTAVYYCAIRREYSGYTPFDYWGQGTLVTVSS
VL: DIVMTQTPSSLSASVGDRVTITCRASQGISSWLAWYQQKPEKAPRSLIYAASSLQSGVPSRFSGSGSGTDFTLTISSLQPEDFATYYCQQYISYPYTFGQGTKLEIK
The molecule B1 registered an EC50 of 8.72 nM.

B2: 2F3#1733 (antibody, V domains shown)
VH: B1 VH with E1Q, V2I, Q3T, L5R, A56H, S85N
VL: B1 VL
For the molecule B2, the concentration giving a half-maximal response (EC50) came out at 13.6 nM.

B3: 2F3#6 (antibody, V domains shown)
VH: B1 VH with E1Q, T106A, T118I
VL: B1 VL
B3 registered an EC50 of 24.4 nM.

In general, EC50 refers to the concentration needed to bring the measured effect to its halfway point. Lower therefore signals a more potent agent.

The values above are taken from patent US20190111164A1 (published 2019).
